The results in this text go back to PMC11398408 (bioRxiv, 2024).

As a reminder, the stoichiometry N is a count of units in the complex or per binding partner. What is called Kd is the constant that tells how readily two partners part at equilibrium. A lower Kd goes with higher affinity.

The target of the test is UBE2D1 (UniProt P51668 1-147). Description: ITC. For orientation: In ITC the heat of successive injections is recorded.
UBE2D1, sequence (P51668 whole entry): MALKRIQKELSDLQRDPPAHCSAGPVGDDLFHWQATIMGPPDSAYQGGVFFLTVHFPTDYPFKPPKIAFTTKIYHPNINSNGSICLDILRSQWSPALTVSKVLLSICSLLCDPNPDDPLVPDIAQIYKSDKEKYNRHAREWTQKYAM

B1: UBOX-UBL (designed binder)
chain: AEIDYSDAPDEFRDPIMDTLMTDPVRLPSGTVMDRSIILRHLLNSPTDPFNRQTLTESMLEPVPELKEQIQAWMREKQNSDHGGSSGGSSGGSSMWIQVRTMDGRQTHTVDSLSRLTKVEELRRKIQELFHVEPGLQRLFYRGKQMEDGHTLFDYEVRLNDTIQLLVRQS
Turning to B1, the “stoichiometry N” value was around 1.

B2: RING-UBL (designed binder)
chain: SLTAQQSSLIREDKSNAKLWNEVLASLKDRPASGSPFQLFLSKVEETFQCICCQELVFRPITTVCQHNVCKDCLDRSFRAQVFSCPACRYDLGRSYAMQVNQPLQTVLNQLFPGYGNGRGGSSGGSSGGSSGGSSMWIQVRTMDGRQTHTVDSLSRLTKVEELRRKIQELFHVEPGLQRLFYRGKQMEDGHTLFDYEVRLNDTIQLLVRQS
As for B2, the Kd came out at 3.1 ± 0.7 µM and the “stoichiometry N” value was around 1.
